# Data published in a protein production outcome set (Wang et al. 2014).
# Experiment: label from the status in PepcDB records
# 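Note: failed if final PepcDB status was selected cloned or expressed and not failed if soluble or beyond.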
row,Sequence,protein production
1,MSKLSIRNLTKIFGPHPEKALGLLEQGLGKEEIHRRTSHAVGVDRASFDVEEGEIVVVMGLSGSGKSTLVRCLNRLIEPTAGTVTVDGRDVTSMPVDELRRLRQRSFGMVFQNFALFPHRTVLQNAAFGLEAMGVPRAERERQAMVSLERVGLAEWAASRPAQLSGGMQQRVGLARALSLDPDILLMDEAFSALDPLIRRDMQDELLRLQDDLQKTIVFISHDLDEALKLGDRIVLMRDGAVVQIGTPEDILTNPADDYVARFVGEADVTKVLTAGSVMKRSEAVAVLGIDGPRTALRKMRRNAIATLFVLDERHRLVGLITADDAARLAAEGVRELGSIVRRDIATVPPEAPATELISLMADLPHPLAVVDERGRLAGVIVRGLLLGALAERGGVALEHHHHHH,not failed
2,MSKNIGLNAIEMSYLRQSLSLSAAQVGQLTNHSEAEVLAWENAETQAPELAQKKLLDIDDIIEMQVLNTTDGIEALFKKEPKRHLAFVVYPTQAIYTQYNPEFLSSLPLTELYNTAAWRIKKECKLVLEVDVSLINLNVEAYKAYREQNGLSESRESRAKWAATQL,not failed
3,MSKNYQVLAKKIIDIVGVDNVESVTHCQTRLRFVVKDPKQIDKAALEDLDEVKGVFFGSGQYQVIIGTGVVNDVYDAIEKLHLVNAIYSQETTTTPTPDNQKSPLQRFMAMLSGIFIPIIPVIAATGLFLGLQSALTNNQVLQLFGTSSAAIPASLNTVISVLTGTVFSFLPALIVWSTFRYFKGTPIVGIVIGLMLVSPSLPNAYSVAGGTAKAIMLFDRIPVIGSQGSVLTALVAGFLGSKLEHYFHKHVPNVLDQILTPFLTMLVTFGIMILGVGPVVHWIENVMISGVEGLINLPFGIGGFLIGAAYPLMVLVGIHQMMIAIETSLLAATKLNPLITLEAMYGFANLGVALAMILRAKSQKAKANFIGAFSSQLFGVSEPTLFGVLIRYNFKPLVVTVLTSGIGAGVLSVMSVAANSYGLAVVPSYLMYIYNVRDLLIYTVVSLLTVAVAFIATNMFAIPKDILKSDQVQPKIVDDTIFSPVSGKSIALSTVNDPVFASKMMGDGIAIKPQEQGPVKVYAPQSGQMSVVADTGHAYGLTTNNGVELLIHIGIDTVSLKGQGFKVIVKPGQTVQKGDLLGEFDSTVLKAANLDDTVMVIVTNSKNYQRIESEPNQSIQSGAALLAIQGRPEMTTATAS,failed
4,MSKPFMFEKPFGMRDTLPEWYKTKKNICDQMTEEINLWGYDMIETPTLEYYETVGVVSAILDQQLFKLLDQQGNTLVLRPDMTAPIARLVASSLKDRAYPLRLAYQSNVYRAQQNEGGKPAEFEQLGVELIGDGTASADGEVIALMIAALKRAGLSEFKVAIGHVGYVNALLMDVVGNEQRADRLRRFLYEKNYVGYREHVKSLNLSTIDKSRLMNLLSLRGGRAAIEEARGLIQTEKGKTALAEMTKLYEVLESYGASEYVKFDLTLVLHMSYYTGVVFEGYGNRLGVPLCSGGRYDELLSKFHRPAQATGFGVRIDLLVEALNGEIISNGHEQTCILFSNERRFEAIELARKKRANGEAVVLQDLAGVTDVDAMSSNYQDVIYCIGTAGRGGEDA,not failed
5,MSKPGTPKHGAGSSSAAAAPEKISKYNISTEKCGDLTVIVQGDLSQQEKRAVFITVHDLGCNHNSFQEFVSSPCMTEIKERSCFIHVDVPGHADNAEALADGFPFPSLQSLGEDLVTVLDYLHVKYVIGLGEGAGANVLARFGLAHPSRVLGLILINATGSAASVVQSFKNKFISWKSDEVAQSAESFLMYHKFGHQIVGENPDKEKIVAEYQKRLHRSLNSKNIGLYVKAFMNRKDLTLKGCKVDVILITGMLSPYASMVEKLHRDVEKERVTILKIERAGDVLADAPGKVAQSILLFCKGQGLLTSVVMPGVDRGRAFSTASSGSLEGANGSRRLSRGISMEDYDKPNIRRLSIMNSELPKKE,failed
6,MSKPHALRGVLANLISESQSPLTPESIIREFRATSDRRLPACDLIKVLVSISEKRPNFAEVTKEISHILQNKDPMYALLVFVERYSECKPVSESSSSTSLSAMGLPHGNKTSDVNSAAGSVPTTLAIASTSTILTTSQNVSGSTRLSLTQSQDFPTSTPVNCKKATESDTTPVVFVRRGPMDRNRGAGKDERNDLSVIKERVLNAVSDQSLSGYRSVTNKTGNSPKSMPNDLVTLTDVPDEYRTHLLWEYYKVDGDKVPRAEIAAMPLLSQESMLLDELLHCLTGIRESLLVPQKPIISAVGLAKYDTDFDIHTHLDRSLTHQVREILPLASYFMGVQKIIAATDGLGQVMNSLNEALQELTHDFYLIIVQAEQELRHNRLTLQKLLYYLQPTMWVMHEVWSSLVIIQLSDSRDAEVLTYLHERIKRLEGNKDAQQLIIGLVRKAAKPYMRMLQMWIQKGVIVDRHREFLVVDNEVIHRDELPEHYSDDYWERRYTLRDEQIPSFLAKYSDKILRTGKYLNVIRQCGKRVMPTQEMNLEFDPTSERHVSVINDAYYFAARMLLDVLLTENDLMGHLQSVKRYLLLNQGDFTMQFMDACEDELTKNVDHVLPMTLENLLGLTLRISSARNDPYKDDLHCELLPYDLVTQMSKIMKKEENWQAQPRLDLSGLECFAFTYEVKWPCSLVLNHISISKYQMLFRQLFYCKHVERQLCKIWKENSIARQFEPQAASLYRAAFTLRQRMMNAIQNLEYYMMIEIIEPNWHIFIEKMKTVENVDNVLRLHQDFLDSCLKNCMLTESSHLNRSIFKLCKICLKYCEFIQITQRYFQDAELRSMVRDSADSSESEQESLHCPQIETPLDPTDTFSERVRRFDLEFTQLLISFLKQINSMAKKNTADCFMNLVHRINFNAFYTDQMDKMCVEDAIG,failed
7,MSKPPLFFIIIIALIVVAASFRFVQQRREKAANEAAPLQQKQVVVSNKREKPVNDRRSRQQEVIPAGTSMRYEVSFKPLNGGLEKTFRLQAQQYHALTVGDQGTLSYKGTRFVGFVSRTPDNE,failed
8,MSKQIPVQDVTPPAKGDTNNNDLYAKREKIYTRAFTGIFRRLRMVGGAALFLLYFGTVWLNWSGRQAVWWDLPERKFYIFGATFWPQDFMLLSWLLIVCAFGLFFITVFAGRVWCGYTCPQSVWTWIYMWCEKVTEGDRNQRIKLDKAPMSGNKLLRKTAKHSLWLLIGLVTGLTFVGYFSPIRELIPELLTGQADGWAYFWVGFFTLATYGNAGWLREQVCIYMCPYARFQSVMFDKDTLIVSYDPRRGEKRGPRKKSLDYKAQGLGDCIDCTMCVQVCPTGIDIRDGLQIECIGCAACIDACDSIMEKMNYPKGLISYTTEHNLNGQKTHLARPRLIGYAIALVLMISALITAVVLRPLVGFDVSKDRVLYRENELGRIENVYSLKIMNKDQQDHTYILGAKGLEGLTLEGRRELKVAAGDILNLPMELSIEPEKLPSTTNEIVFTIESADDPSIHKEAKSRFIGPRTR,failed
9,MSKQSVKKIISFSLTIIIAIVMLGLLKNLFSQSDDKALSEAIRNGAFLVDVRTPGEFASGSVAGAVNIPLDRIASRLNELKNKKTIIVFCRSGNRSSQAKSILERNGFSNVLDGGTWGHVASLKGDQ,failed
10,MSKRANKLVIVTEKVLLKKVAKIIEEAGATGYTVVDTGGKGSRNVRSTGKPNTSDTDSNVKFEVLTENREMAEKIADQVAIKFFTDYAGIIYICEAEVLYGRTFCGPDGC,not failed
11,MSKSEEKQELPLETSPYTKYEDIEDYKKNAYGTSGHQDVKPGHGGGTTDAPTPSGDAAPSAIDSANQKAKK,failed
12,MSLAADSADAGFARDMSVHHQQAVEMSYIVRDRTDDEEVRRLAYDIAQTQANQRGMMIGWLDLWALPKVSSDPPMTWMGMGDAPSAGEGSLMPGMATDAEMKKLGTLDGKQAEVYYLQLMTEHHRGGVHMAKGCVERCTVGVEKRLARGMVESQESEIRLMADLLAERGAKEGHHHHHH,not failed
13,MSLAILTTAYAKIIGLDFSYRKVSTLPIFTKKEDVILSSSHVQTIIYDPSFIADQNTFYLANPAVVIDYFPSKSHRSGIKFSLETFLAMYYKNIAADALADKDLNKSFLYANKAYQLDTDNIETINLLAVIHRRSGDLQTAEAIYKTGMDKGQTNIALLSNYIMLLKSQRRMDEVNTLQDKLNQLDDPDPYQWLGEAYTAKNVGNIKQAEIYFKKALSKAPYLNQAYMGLYKIYIKQNKLKKAQTMLVKALEWTYELDERKLYKYKLYNIEHNIAAIN,failed
14,MSLAQIKSLFATRLYHAPLSEHGPALDPAEFAASCYSIAEDDDAGQEWCEREGYPGYTSYASLTDLPWRFPIFADLVKSLDAHVAAFAEDLEFELDGKALRLEDIWINILPEGGVHGSHIHPHSVISGTTYVAMPEGTSALKLEDPRLPFMMAAPTRRKGAREELRTFRSVAPKVGDVLLWESWLRHEVPMNMAEEDRISVSFNYAWGEGHHHHHH,not failed
15,MSLARVLLNIHGTGDTVVLALCDEDLLGVELKYKGRTLHISEPFYSGKSMEPDRAAKKIREAVQEYEDEKTVAINALGELACSVVVDAGLAREDEIGELGGVPHVQMYILPREPFLEGHHHHHH,not failed
16,MSLASFPVQILPNLYLGSARDSANLESLAKLGIRYILNVTPNLPNFFEKNGDFHYKQIPISDHWSQNLSRFFPEAIEFIDEALSQNCGVLVHSLAGVSRSVTVTVAYLMQKLHLSLNDAYDLVKRKKSNISPNFNFMGQLLDFERSLREGHHHHHH,not failed
17,MSLATEGNGKVIHLTKAEFLAKVYNFEKNPEEWKYEGDKPAIVDFYADWCGPCKMVAPILDELAKEYDGQIVIYKVDTEKEQELAGAFGIRSIPSILFIPMEGKPEMAQGAMPKASFKKAIDEFLLKKEGHHHHHH,not failed
18,MSLAVKPGEPLPDFLLLDPKGQPVTPATVSKPAVIVFWASWCTVCKAEFPGLHRVAEETGVPFYVISREPRDTREVVLEYMKTYPRFIPLLASDRDRPHEVAARFKVLGQPWTFVVDREGKVVALFAGRAGREALLDALLLAGADLEGHHHHHH,not failed
19,MSLDGMPAKQQHNNTGESVELHFHYPIKGKQEPKNSHLVVLIEPKIEINKVIPESYQKEFEKSLFLQLSSFLERKGYSVSQFKDASEIPQDIKEKALLVLRMDGNVAILEDIVEESDALSEEKVIDMSSGYLNLNFVEPKSEDIIHSFGIDVSKIKAVIERVELRRTNSGGFVPKTFVHRIKETDHDQAIRKIMNQAYHKVMVHITKELSKKHMEHYEKVSSEMKKRKEGHHHHHH,not failed
20,MSLDRLAPAIFVFLWSTGWVTAKYAVYYTGPLTFLCLRYLLAGLLLWAICRFSGISWPKQRADVLRAILSGVFLHGIYLGMIWWAIGQGVPAAIGGIIAGLQPLMTAVAARFMIGERISPLQRAGLLLGFAGIAIAVLPKVMATGALGMSVPLYAVAVNVLGMVSVTYGTLYQKKYVHGGNIMAVATLQYVGALLVTVPFALLLEDGHVDWSLGLAATLGWSVGAISIGAVALLLYLIRRGQVSRAASLIYLVPPLAAVEAAVLFGETLTPAMIAGTVLAVTGVYLANRKPAASVAVR,failed
21,MSLDTGVTSVMFVERSLNEIRFWSRIMKEHSFFLRLGFRCEDTQLIEEANQFYRLFEHIEQIAHSYTNETDPEQIKRFNAEVQQAATNIWGFKRKILGLILTCKLPGQNNFPLLVDHTSREADYFRKRLIQLNEGKLDALPDAIIKENVFFLRIMADHAKFIGHLLDPSERKLVDTARNFSNDFDELMYQAIDLESMKPQSQTAPLLDQFLDQNRVSVASLRDFKKTARDLIEQCKIKSIIHPLLADHVFREADRFLEIIDMYDVHLTNIQSQPREGHHHHHH,not failed
22,MSLDYDLLIKNGQTVNGMPVEIAIKEKKIAAVAATISGSAKETIHLEPGTYVSAGWIDDHVHCFEKMALYYDYPDEIGVKKGVTTVIDAGTTGAENIHEFYDLAQQAKTNVFGLVNISKWGIVAQDELADLSKVQASLVKKAIQELPDFVVGIKARMSRTVIGDNGITPLELAKQIQQENQEIPLMVHIGSAPPHLDEILALMEKGDVLTHCFNGKENGILDQATDKIKDFAWQAYNKGVVFDIGHGTDSFNFHVAETALREGMKAASISTDIYIRNRENGPVYDLATTMEKLRVVGYDWPEIIEKVTKAPAENFHLTQKGTLEIGKDADLTIFTIQAEEKTLTDSNGLTRVAKEQIRPIKTIIGGQIYDNEGHHHHHH,not failed
